Test [1] has as its target IL-2 receptor beta/gamma (Homo sapiens) (UniProt P14784). Conditions: cited from earlier work.
Test [2] has as its target human interleukin-2 (recombinant IL-2, Humanzyme) (human, UniProt P60568). Description: SPR.
Test [3] addresses human IL-2 crystallised with the F5111 Fab (human, UniProt P60568). Description: crystal structure.

Chain of IL-2 receptor beta/gamma (Homo sapiens) (P14784 27-240, chain 1 of 2): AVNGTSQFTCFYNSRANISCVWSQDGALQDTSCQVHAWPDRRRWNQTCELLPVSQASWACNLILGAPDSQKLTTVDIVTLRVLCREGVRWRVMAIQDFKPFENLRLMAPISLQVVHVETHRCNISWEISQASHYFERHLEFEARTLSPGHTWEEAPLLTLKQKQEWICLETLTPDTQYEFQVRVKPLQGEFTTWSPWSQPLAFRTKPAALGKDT
Chain of IL-2 receptor beta/gamma (Homo sapiens) (P31785 23-262, chain 2 of 2, further chain): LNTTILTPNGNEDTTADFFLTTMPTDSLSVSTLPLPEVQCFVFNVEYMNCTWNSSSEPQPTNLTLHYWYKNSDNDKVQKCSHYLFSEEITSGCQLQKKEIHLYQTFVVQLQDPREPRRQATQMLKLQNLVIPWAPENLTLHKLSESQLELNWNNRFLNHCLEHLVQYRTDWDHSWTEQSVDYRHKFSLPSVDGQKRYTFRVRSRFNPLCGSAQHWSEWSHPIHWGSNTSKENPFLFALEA
Chain of human IL-2 crystallised with the F5111 Fab (P60568 21-153): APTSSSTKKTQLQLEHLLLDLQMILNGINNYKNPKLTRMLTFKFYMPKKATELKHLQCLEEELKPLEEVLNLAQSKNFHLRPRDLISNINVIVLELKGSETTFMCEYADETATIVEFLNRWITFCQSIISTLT
Chain of human interleukin-2 (recombinant IL-2, Humanzyme) (P60568 21-153): as above

The term Kd denotes the constant that tells how readily two partners part at equilibrium. As to IL-2 (from UniProt P60568), the Kd in test [1] was 1 nM.

B1: F5111, fully human anti-human IL-2 IgG (antibody, V domains shown)
VH: QLQLQESGPGLVKPSQTLSLTCTVSGGSISSGGYYWSWIRQHPGKGLEWIGYIYYSGSTYYNPSLKSRVTISVDTSKNQFSLKLSSVTAADTAVYYCARTPTVTGDWFDPWGRGTLVTVSS
VL: NFMLTQPHSVSESPGKTVTISCTRSSGSIASNYVQWYQQRPGSSPTTVIYEDNQRPSGVPDRFSGSIDSSSNSASLTISGLKTEDEADYYCQSYDSSNVVFGGGTKLTVL
As for B1, the binding result in test [2] is reported as “binds”.

B2: F5111 Fab (Fab, V domains shown)
VH: QLQLQESGPGLVKPSQTLSLTCTVSGGSISSGGYYWSWIRQHPGKGLEWIGYIYYSGSTYYNPSLKSRVTISVDTSKNQFSLKLSSVTAADTAVYYCARTPTVTGDWFDPWGRGTLVTVSS
VL: NFMLTQPHSVSESPGKTVTISCTRSSGSIASNYVQWYQQRPGSSPTTVIYEDNQRPSGVPDRFSGSIDSSSNSASLTISGLKTEDEADYYCQSYDSSNVVFGGGTKLTVL
Take B2: the binding result in test [3] is “binds”.

Source of the values: article PMC6398608 (Nature medicine, 2018).
